According to US6987169:

Target: rSK2 small conductance, calcium-activated potassium channel (rat), P70604
Sequence (P70604 whole entry): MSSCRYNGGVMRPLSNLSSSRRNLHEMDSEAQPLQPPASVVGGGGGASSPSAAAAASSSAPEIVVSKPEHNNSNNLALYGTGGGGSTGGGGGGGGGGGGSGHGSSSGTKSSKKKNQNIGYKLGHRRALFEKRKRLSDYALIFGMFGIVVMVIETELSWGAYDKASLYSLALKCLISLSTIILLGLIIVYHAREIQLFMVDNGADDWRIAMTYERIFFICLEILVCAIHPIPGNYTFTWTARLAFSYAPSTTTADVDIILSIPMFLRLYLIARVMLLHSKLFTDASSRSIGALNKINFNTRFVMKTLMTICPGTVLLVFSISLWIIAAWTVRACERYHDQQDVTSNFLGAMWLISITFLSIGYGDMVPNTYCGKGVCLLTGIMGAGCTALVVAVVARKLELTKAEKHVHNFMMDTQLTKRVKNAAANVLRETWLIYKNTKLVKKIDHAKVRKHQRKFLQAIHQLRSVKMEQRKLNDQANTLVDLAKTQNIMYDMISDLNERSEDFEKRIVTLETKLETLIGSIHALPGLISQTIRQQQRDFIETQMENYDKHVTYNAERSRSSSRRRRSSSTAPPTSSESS

B1: apamin, P01500 28-45 (peptide)
peptide: CNCKAPETALCARRCQQH
modifications: not checked
Kd: 63 µM
